Source: patent US20250042940A1 (CREIGHTON UNIVERSITY, published 2025)
Each block holds one binder with its values, some of them ahead of it. Non-standard residues stand in square brackets, D forms with d. No end group written: not given here. Pmb = 4-(di-t-butylphosphonomethyl)-3-methylbutyric acid, phosphonate replacement of phospho-Thr; pT = C[C@@H](OP(=O)(O)O)[C@H](N)C(=O)O; pS = N[C@@H](COP(=O)(O)O)C(=O)O

Assays:
[1] = target: T1, 14-3-3ε (endogenous, in human SCC12B.2 squamous cell carcinoma cells) (human, UniProt P62258 1-255); test: cell-based or functional assay
T1 sequence (looked up): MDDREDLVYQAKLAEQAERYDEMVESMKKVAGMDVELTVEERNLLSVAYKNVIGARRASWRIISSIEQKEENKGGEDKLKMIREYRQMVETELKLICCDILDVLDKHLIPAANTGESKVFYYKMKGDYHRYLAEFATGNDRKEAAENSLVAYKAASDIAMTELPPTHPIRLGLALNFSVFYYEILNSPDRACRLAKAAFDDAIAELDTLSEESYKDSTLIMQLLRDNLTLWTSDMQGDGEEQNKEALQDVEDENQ

[2] = target: T2, 14-3-3ε protein (purified, as used in DSF and in the SPR of the Pmb peptide) (UniProt P62258 1-255); test: differential scanning fluorimetry (DSF), 14-3-3ε alone against 14-3-3ε with peptide
T2 sequence (looked up): T1 sequence (looked up)

[3] = target: T2, 14-3-3ε protein (purified, as used in …); test: SPR
[4] = target: T3, 14-3-3ε-(His)12 protein (UniProt P62258 1-255); test: SPR, Biacore 8K, 14-3-3ε-(His)12 on NTA chip, peptide 1 nM-2000 nM, 25° C., mean±SD
T3 sequence: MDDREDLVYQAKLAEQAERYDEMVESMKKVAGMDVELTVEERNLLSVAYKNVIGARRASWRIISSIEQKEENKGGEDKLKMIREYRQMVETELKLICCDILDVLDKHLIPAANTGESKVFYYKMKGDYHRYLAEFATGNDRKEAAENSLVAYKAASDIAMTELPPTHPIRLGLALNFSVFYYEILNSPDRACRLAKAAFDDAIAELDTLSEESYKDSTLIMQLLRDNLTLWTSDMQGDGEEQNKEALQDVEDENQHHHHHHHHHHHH
Protocol: For the SPR measurements, binding affinities of the modified pT peptide for 14-3-3ε were measured by SPR using a Biacore 8K Surface plasmon resonance instrument. 100 nM 14-3-3ε-(His)12 protein in 20 mM Tris, 150 mM NaCl, 50 μM EDTA, 0.005% Tween 20, pH 7.4 buffer was immobilized to a NiCl2 activated NTA chip at a flow rate of 5 μL/min for 10 min and then washed with the running buffer for 20 min. Then peptide solutions at a concentration range of 1 nM-2000 nM were injected cycle-wise at the flow rate of 30 μL/min for 1 min, and dissociation time was set for 3 min. All SPR experiments were performed at 25° C. […] At least three replicates were done for each peptide at similar conditions, and binding affinities (KD) are presented as mean±SD.

[5] = target: T2, 14-3-3ε protein (purified, as used in …); test: differential scanning fluorimetry (DSF), SYPRO-Orange, 2 µM protein and 30 µM peptide
Protocol: The binding of the modified pT peptide to 14-3-3ε was assessed using differential scanning fluorimetry (DSF) and surface plasmon resonance (SPR) measurements. The melting temperature (Tm) of 14-3-3ε-peptide complexes was determined by DSF using the BioRad CFX384 Touch realtime PCR. The protein unfolding was detected with a fluorescent SYPRO-orange dye. The assay was performed in 20 mM Tris, 150 mM NaCl, and 1 mM DTT PH7.4 buffer in a […] with a total volume of 20 μL, containing 2 and 30 μM, final concentrations of protein and peptide, respectively, and 500× dilution of the SYPRO-Orange dye stock. The excitation filter for the dye was 450-490 nm, and the emission filter was 560-580 nm. The temperature was held at 25° C. for 5 min and then increased from 25 to 95° C. at a rate of 0.3° C./ min, and fluorescence was recorded over time. Tm values were determined by plotting the first derivative of the melting curve.

B1: peptide pS, Ac-Thr-Gln-Arg-Gln-Asn-Ser-(PO3^2-)-Ala-Pro-Arg-Met-Leu-Ser-Ser-Asn-NH2 (peptide)
peptide: Ac-TQRQN[pS]APRMLSSN-NH2
SMILES: CSCC[C@H](NC(=O)[C@H](CCCNC(=N)N)NC(=O)[C@@H]1CCCN1C(=O)[C@H](C)NC(=O)[C@H](COP(=O)(O)O)NC(=O)[C@H](CC(N)=O)NC(=O)[C@H](CCC(N)=O)NC(=O)[C@H](CCCNC(=N)N)NC(=O)[C@H](CCC(N)=O)NC(=O)[C@@H](NC(C)=O)[C@@H](C)O)C(=O)N[C@@H](CC(C)C)C(=O)N[C@@H](CO)C(=O)N[C@@H](CO)C(=O)N[C@@H](CC(N)=O)C(N)=O
- IC50, dose response curve in SCC12B.2 cells (Neutral Red Cell Viability assay) [1]: 29 µM

B2: peptide pT, Ac-Arg-Thr-Lys-Ser-Arg-Thr(PO3^2-)-Trp-Ala-Gly-Glu-Lys-Ser-Lys-Arg-NH2 (peptide)
peptide: Ac-RTKSR[pT]WAGEKSKR-NH2
- IC50, dose response curve in SCC12B.2 cells (Neutral Red Cell Viability assay) [1]: 22.6 µM

B3: targeting peptide ES1P2, Trp-Tyr-Trp-Lys-NH2 (peptide)
peptide: WYWK-NH2
- IC50, dose response curve in SCC12B.2 cells (Neutral Red Cell Viability assay) [1]: 20.6 µM

- Kd [3]: 9 nM
B4: first targeting peptide with a Pmb residue, Ac-Arg-Thr-Lys-Ser-Arg-Pmb-Trp-Ala-Gly-NH2 (peptide)
peptide: Ac-RTKSR[Pmb]WAG-NH2
notes: Synthetic analog of the pT peptide (CDC25A Thr507 site) in which the phospho-Thr is replaced by Pmb; also called phosphono-peptide
- increase in melting temperature (ΔTm) of 14-3-3ε [2]: 3.6 ° C.

- Kd [4]: 30.9 nM
B5: modified pT peptide, Ac-Arg-Thr-Lys-Ser-Arg-Thr(PO3^2-)-Trp-Ala-Tic-NH2 (peptide)
peptide: RTKSRTWAX
modifications: N-terminal acetyl; phospho-Thr at position 6; Tic residue at position 9; C-terminal amide
notes: Synthetic modification of peptide pT; also called peptide pT modified with a Tic residue
- increase in melting temperature (ΔTm) of 14-3-3ε [5]: 4.43 ° C.
